Assay results published in PMC2064105 (The Journal of Cell Biology, 2007).

Molecular target: T1, purified recombinant Kap121p (S. cerevisiae, UniProt P32337 1-1089)
T1 sequence (looked up): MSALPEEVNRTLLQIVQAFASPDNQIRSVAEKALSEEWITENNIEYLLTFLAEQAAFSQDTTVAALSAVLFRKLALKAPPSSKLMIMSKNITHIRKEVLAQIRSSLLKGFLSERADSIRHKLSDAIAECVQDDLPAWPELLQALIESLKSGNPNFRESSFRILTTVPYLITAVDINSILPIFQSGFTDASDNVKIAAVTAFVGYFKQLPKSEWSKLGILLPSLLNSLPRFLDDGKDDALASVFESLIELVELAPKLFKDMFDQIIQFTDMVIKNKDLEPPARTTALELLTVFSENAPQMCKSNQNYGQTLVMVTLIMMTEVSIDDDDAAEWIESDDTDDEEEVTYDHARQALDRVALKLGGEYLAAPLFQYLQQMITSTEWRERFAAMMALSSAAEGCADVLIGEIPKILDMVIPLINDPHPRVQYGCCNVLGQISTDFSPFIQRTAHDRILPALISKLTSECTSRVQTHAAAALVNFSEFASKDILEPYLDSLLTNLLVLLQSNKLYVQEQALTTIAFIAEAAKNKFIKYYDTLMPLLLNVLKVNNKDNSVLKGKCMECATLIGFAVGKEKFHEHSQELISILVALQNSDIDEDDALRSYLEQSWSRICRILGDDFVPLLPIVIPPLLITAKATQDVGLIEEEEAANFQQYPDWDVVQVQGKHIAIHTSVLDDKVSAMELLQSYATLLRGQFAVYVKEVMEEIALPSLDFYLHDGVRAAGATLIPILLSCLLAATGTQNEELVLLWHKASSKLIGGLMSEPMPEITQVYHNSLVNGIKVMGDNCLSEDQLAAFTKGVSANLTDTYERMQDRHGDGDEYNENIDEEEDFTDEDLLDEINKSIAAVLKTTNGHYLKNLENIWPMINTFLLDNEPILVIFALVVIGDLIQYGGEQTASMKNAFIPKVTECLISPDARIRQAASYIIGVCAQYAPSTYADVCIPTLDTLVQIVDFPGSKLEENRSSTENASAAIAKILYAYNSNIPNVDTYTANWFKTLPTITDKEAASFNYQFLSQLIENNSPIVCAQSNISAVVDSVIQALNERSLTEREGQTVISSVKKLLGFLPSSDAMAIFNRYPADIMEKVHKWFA
Test: pull-down

binding result: binds
B1: purified recombinant Nup53p (natural protein, S. cerevisiae, UniProt Q03790 1-475, looked up)
chain: MADLQKQENSSRFTNVSVIAPESQGQHEQQKQQEQLEQQKQPTGLLKGLNGFPSAPQPLFMEDPPSTVSGELNDNPAWFNNPRKRAIPNSIIKRSNGQSLSPVRSDSADVPAFSNSNGFNNVTFGSKKDPRILKNVSPNDNNSANNNAHSSDLGTVVFDSNEAPPKTSLADWQKEDGIFSSKTDNIEDPNLSSNITFDGKPTATPSPFRPLEKTSRILNFFDKNTKTTPNTASSEASAGSKEGASTNWDDHAIIIFGYPETIANSIILHFANFGEILEDFRVIKDFKKLNSKNMSKSPSLTAQKYPIYTGDGWVKLTYKSELSKSRALQENGIIMNGTLIGCVSYSPAALKQLASLKKSEEIINNKTSSQTSLSSKDLSNYRKTEGIFEKAKAKAVTSKVRNAEFKVSKNSTSFKNPRRLEIKDGRSLFLRNRGKIHSGVLSSIESDLKKREQASKSKKSWLNRLNNWLFGWNDL
